Assay results from the Human Domainome abundance scans (Beltran et al. 2025).
± gives the uncertainty stated by the source.

B1: GA-binding protein alpha chain, residues 172 to 250; numbered along this chain, Q06546 (parent)
chain: GYRKEQERLGIPYDPIQWSTDQVLHWVVWVMKEFSMTDIDLTTLNISGRELCSLNQEDFFQRVPRGEILWSHLELLRKY

Variants of: B1
Experiment: abundance fitness (aPCA) (normalised: wild type 0, dead -1); higher = more abundant; growth selection in yeast, the domain comes from the species named
Details: Homo sapiens

Variant | abundance fitness
GYRKEQERLGIPYDPIQWSTDQVLHWVVWVMKEFSMTDIDLTTLNISGRELCSLRQEDFFQRVPRGEILWSHLELLRKY [N55R] | -0.014 ± 0.033
GYRKEQERLGIPYDPIQWSTDQVLHWVVWVMKEFSMTDIDLTTLNISGRELCSLSQEDFFQRVPRGEILWSHLELLRKY [N55S] | 0.012 ± 0.035
GYRKEQERLGIPYDPIQWSTDQVLHWVVWVMKEFSMTDIDLTTLNISGRELCSLEQEDFFQRVPRGEILWSHLELLRKY [N55E] | -0.037 ± 0.078
GYRKEQERLGIPYDPIQWSTDQVLHWVVWVMKEFSMTDIDLTTLNISGRELCSLVQEDFFQRVPRGEILWSHLELLRKY [N55V] | -0.148 ± 0.04
GYRKEQERLGIPYDPIQWSTDQVLHWVVWVMKEFSMTDIDLTTLNISGRELCSLKQEDFFQRVPRGEILWSHLELLRKY [N55K] | -0.189 ± 0.15
GYRKEQERLGIPYDPIQWSTDQVLHWVVWVMKEFSMTDIDLTTLNISGRELCSLFQEDFFQRVPRGEILWSHLELLRKY [N55F] | -0.712 ± 0.087
GYRKEQERLGIPYDPIQWSTDQVLHWVVWVMKEFSMTDIDLTTLNISGRELCSLGQEDFFQRVPRGEILWSHLELLRKY [N55G] | -0.02 ± 0.035
GYRKEQERLGIPYDPIQWSTDQVLHWVVWVMKEFSMTDIDLTTLNISGRELCSLTQEDFFQRVPRGEILWSHLELLRKY [N55T] | -0.025 ± 0.047
GYRKEQERLGIPYDPIQWSTDQVLHWVVWVMKEFSMTDIDLTTLNISGRELCSLIQEDFFQRVPRGEILWSHLELLRKY [N55I] | -0.244 ± 0.086
GYRKEQERLGIPYDPIQWSTDQVLHWVVWVMKEFSMTDIDLTTLNISGRELCSLYQEDFFQRVPRGEILWSHLELLRKY [N55Y] | -0.274 ± 0.089
GYRKEQERLGIPYDPIQWSTDQVLHWVVWVMKEFSMTDIDLTTLNISGRELCSLAQEDFFQRVPRGEILWSHLELLRKY [N55A] | -0.065 ± 0.041
GYRKEQERLGIPYDPIQWSTDQVLHWVVWVMKEFSMTDIDLTTLNISGRELCSLDQEDFFQRVPRGEILWSHLELLRKY [N55D] | 0.008 ± 0.054
GYRKEQERLGIPYDPIQWSTDQVLHWVVWVMKEFSMTDIDLTTLNISGRELCSLWQEDFFQRVPRGEILWSHLELLRKY [N55W] | -0.782 ± 0.13
GYRKEQERLGIPYDPIQWSTDQVLHWVVWVMKEFSMTDIDLTTLNISGRELCSLHQEDFFQRVPRGEILWSHLELLRKY [N55H] | -0.124 ± 0.063
GYRKEQERLGIPYDPIQWSTDQVLHWVVWVMKEFSMTDIDLTTLNISGRELCSLMQEDFFQRVPRGEILWSHLELLRKY [N55M] | -0.291 ± 0.054
GYRKEQERLGIPYDPIQWSTDQVLHWVVWVMKEFSMTDIDLTTLNISGRELCSLCQEDFFQRVPRGEILWSHLELLRKY [N55C] | -0.124 ± 0.051
GYRKEQERLGIPYDPIQWSTDQVLHWVVWVMKEFSMTDIDLTTLNISGRELCSLPQEDFFQRVPRGEILWSHLELLRKY [N55P] | -0.039 ± 0.048

Variant | abundance fitness
GYRKEQERLGIPYDPIQWSTDQVLHWVVWVMKEFSMTDIDLTTLNISGRELCSLLQEDFFQRVPRGEILWSHLELLRKY [N55L] | -0.252 ± 0.03
GYRKEQERLGIPYDPIQWSTDQVLHWVVWVMKEFSMTDIDLTTLNISGRELCSWNQEDFFQRVPRGEILWSHLELLRKY [L54W] | -0.021 ± 0.049
GYRKEQERLGIPYDPIQWSTDQVLHWVVWVMKEFSMTDIDLTTLNISGRELCSSNQEDFFQRVPRGEILWSHLELLRKY [L54S] | -0.693 ± 0.072
GYRKEQERLGIPYDPIQWSTDQVLHWVVWVMKEFSMTDIDLTTLNISGRELCSYNQEDFFQRVPRGEILWSHLELLRKY [L54Y] | -0.273 ± 0.34
GYRKEQERLGIPYDPIQWSTDQVLHWVVWVMKEFSMTDIDLTTLNISGRELCSVNQEDFFQRVPRGEILWSHLELLRKY [L54V] | -0.341 ± 0.058
GYRKEQERLGIPYDPIQWSTDQVLHWVVWVMKEFSMTDIDLTTLNISGRELCSLNQEEFFQRVPRGEILWSHLELLRKY [D58E] | -0.095 ± 0.044
GYRKEQERLGIPYDPIQWSTDQVLHWVVWVMKEFSMTDIDLTTLNISGRELCSLNQEPFFQRVPRGEILWSHLELLRKY [D58P] | -0.943 ± 0.19
GYRKEQERLGIPYDPIQWSTDQVLHWVVWVMKEFSMTDIDLTTLNISGRELCSLNQENFFQRVPRGEILWSHLELLRKY [D58N] | -0.188 ± 0.078
GYRKEQERLGIPYDPIQWSTDQVLHWVVWVMKEFSMTDIDLTTLNISGRELCSLNQEHFFQRVPRGEILWSHLELLRKY [D58H] | -0.149 ± 0.1
GYRKEQERLGIPYDPIQWSTDQVLHWVVWVMKEFSMTDIDLTTLNISGRELCSLNQEAFFQRVPRGEILWSHLELLRKY [D58A] | -0.041 ± 0.043
GYRKEQERLGIPYDPIQWSTDQVLHWVVWVMKEFSMTDIDLTTLNISGRELCSLNQECFFQRVPRGEILWSHLELLRKY [D58C] | -0.177 ± 0.063
GYRKEQERLGIPYDPIQWSTDQVLHWVVWVMKEFSMTDIDLTTLNISGRELCSLNQEKFFQRVPRGEILWSHLELLRKY [D58K] | -0.129 ± 0.078
GYRKEQERLGIPYDPIQWSTDQVLHWVVWVMKEFSMTDIDLTTLNISGRELCSLNQELFFQRVPRGEILWSHLELLRKY [D58L] | -0.087 ± 0.044
GYRKEQERLGIPYDPIQWSTDQVLHWVVWVMKEFSMTDIDLTTLNISGRELCSLNQEIFFQRVPRGEILWSHLELLRKY [D58I] | -0.022 ± 0.094
GYRKEQERLGIPYDPIQWSTDQVLHWVVWVMKEFSMTDIDLTTLNISGRELCSLNQEMFFQRVPRGEILWSHLELLRKY [D58M] | -0.004 ± 0.083
GYRKEQERLGIPYDPIQWSTDQVLHWVVWVMKEFSMTDIDLTTLNISGRELCSLNQEGFFQRVPRGEILWSHLELLRKY [D58G] | -0.071 ± 0.03
GYRKEQERLGIPYDPIQWSTDQVLHWVVWVMKEFSMTDIDLTTLNISGRELCSLNCEDFFQRVPRGEILWSHLELLRKY [Q56C] | -0.162 ± 0.068
